Assay results as given in publication PMC12732409.

Biological target: hyaluronidase from bovine testes (bovine)

With “NGT-M002 (pvFP-5; Perna viridis foot protein-5) (natural protein)” the hyaluronidase inhibition rate (enzyme activity on hyaluronic acid, absorbance at 600 nm) at 500 μM sample, 1 U/mL hyaluronidase was 91%.
